# Patent publication US20140206607A1 (INDIANA UNIVERSITY RESEARCH AND TECHNOLOGY, published 2014)
# Numbered stars: 1 amine (or outer) side, 2 acyl side, 3 side chain; on linkers, the order of the positions; unused ones are H or OH. Square brackets hold non-standard residues; d marks the D form. Side chains are listed from the residue outwards. Ends that are not written are not given here. * marks the point of attachment. 40K‑TE PEG = 40 kDa PEG covalently bound via thioether, formed by reaction of the free thiol of the peptide (Cys side chain) with an iodoacetic-functionalized PEG; γGlu = O=C(O)[C@H](CCC(=O)[*:2])N[*:1]; Desaminohistidyl = O=C(CCc1c[nH]cn1)*; Palmitoyl = CCCCCCCCCCCCCCCC(=O)*; EC16 = not defined here; Aib = CC(C)(N)C(=O)O
# T1: GIP receptor (UniProt P48546 22-466)
# T1 sequence (looked up): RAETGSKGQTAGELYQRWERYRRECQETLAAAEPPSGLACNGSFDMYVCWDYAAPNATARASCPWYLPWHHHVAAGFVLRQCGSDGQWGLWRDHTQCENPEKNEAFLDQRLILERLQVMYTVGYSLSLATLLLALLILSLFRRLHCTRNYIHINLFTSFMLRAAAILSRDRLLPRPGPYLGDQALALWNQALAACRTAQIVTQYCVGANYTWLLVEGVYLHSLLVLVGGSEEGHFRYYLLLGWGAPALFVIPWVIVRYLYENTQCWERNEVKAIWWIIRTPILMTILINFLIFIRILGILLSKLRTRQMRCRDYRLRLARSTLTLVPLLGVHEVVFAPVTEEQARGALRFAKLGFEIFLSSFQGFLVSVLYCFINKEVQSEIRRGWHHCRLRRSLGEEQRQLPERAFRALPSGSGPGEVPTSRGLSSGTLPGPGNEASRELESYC
# B1: peptide of SEQ ID NO: 21 (peptide)
# peptide: Ac-H[dS]QGTFTSDK([γGlu-Palmitoyl])SKYLDERAAQDFVQWLLDT-NH2
# SMILES: CCCCCCCCCCCCCCCC(=O)N[C@@H](CCC(=O)NCCCC[C@H](NC(=O)[C@H](CC(=O)O)NC(=O)[C@H](CO)NC(=O)[C@@H](NC(=O)[C@H](Cc1ccccc1)NC(=O)[C@@H](NC(=O)CNC(=O)[C@H](CCC(N)=O)NC(=O)[C@@H](CO)NC(=O)[C@H](Cc1c[nH]cn1)NC(C)=O)[C@@H](C)O)[C@@H](C)O)C(=O)N[C@@H](CO)C(=O)N[C@@H](CCCCN)C(=O)N[C@@H](Cc1ccc(O)cc1)C(=O)N[C@@H](CC(C)C)C(=O)N[C@@H](CC(=O)O)C(=O)N[C@@H](CCC(=O)O)C(=O)N[C@@H](CCCNC(=N)N)C(=O)N[C@@H](C)C(=O)N[C@@H](C)C(=O)N[C@@H](CCC(N)=O)C(=O)N[C@@H](CC(=O)O)C(=O)N[C@@H](Cc1ccccc1)C(=O)N[C@H](C(=O)N[C@@H](CCC(N)=O)C(=O)N[C@@H](Cc1c[nH]c2ccccc12)C(=O)N[C@@H](CC(C)C)C(=O)N[C@@H](CC(C)C)C(=O)N[C@@H](CC(=O)O)C(=O)N[C@H](C(N)=O)[C@@H](C)O)C(C)C)C(=O)O
# B2: peptide of SEQ ID NO: 59 (peptide)
# peptide: H[Aib]QGTFTSDKSKYLDERRA[Aib]DFVQWLMNT-NH2
# modifications: not fully specified (residue 10); printed as HaibQGTFTSDK(C16 acyl)SKYLDERRAaibDFVQWLMNT-amide
# B3: peptide of SEQ ID NO: 19 (peptide)
# peptide: H[dS]QGTFTSDK([γGlu-EC16])SKYLDERAAQDFVQWLLDGRG-NH2
# modifications: reading uncertain; also: printed as HsQGTFTSDK(gammaGlu-EC16)SKYLDERAAQDFVQWLLDGRG-amide
# B4: peptide of SEQ ID NO: 60 (peptide)
# peptide: H[Aib]QGTFTSDK([γGlu-Palmitoyl])SKYLD[Aib]RAAQDFVQWLMKTK[dE]-OH
# B5: peptide of SEQ ID NO: 58 (peptide)
# peptide: H[Aib]QGTFTSDK(Palmitoyl)SKYLDSRRA[Aib]DFVQWLMNT-NH2
# modifications: N-terminus assumed
# SMILES: CCCCCCCCCCCCCCCC(=O)NCCCC[C@H](NC(=O)[C@H](CC(=O)O)NC(=O)[C@H](CO)NC(=O)[C@@H](NC(=O)[C@H](Cc1ccccc1)NC(=O)[C@@H](NC(=O)CNC(=O)[C@H](CCC(N)=O)NC(=O)C(C)(C)NC(=O)[C@@H](N)Cc1c[nH]cn1)[C@@H](C)O)[C@@H](C)O)C(=O)N[C@@H](CO)C(=O)N[C@@H](CCCCN)C(=O)N[C@@H](Cc1ccc(O)cc1)C(=O)N[C@@H](CC(C)C)C(=O)N[C@@H](CC(=O)O)C(=O)N[C@@H](CO)C(=O)N[C@@H](CCCNC(=N)N)C(=O)N[C@@H](CCCNC(=N)N)C(=O)N[C@@H](C)C(=O)NC(C)(C)C(=O)N[C@@H](CC(=O)O)C(=O)N[C@@H](Cc1ccccc1)C(=O)N[C@H](C(=O)N[C@@H](CCC(N)=O)C(=O)N[C@@H](Cc1c[nH]c2ccccc12)C(=O)N[C@@H](CC(C)C)C(=O)N[C@@H](CCSC)C(=O)N[C@@H](CC(N)=O)C(=O)N[C@H](C(N)=O)[C@@H](C)O)C(C)C
# B6: peptide of SEQ ID NO: 20 (peptide)
# peptide: [Desaminohistidyl][dS]QGTFTSDK([γGlu-Palmitoyl])SKYLDERAAQDFVQWLLDT-NH2
# SMILES: CCCCCCCCCCCCCCCC(=O)N[C@@H](CCC(=O)NCCCC[C@H](NC(=O)[C@H](CC(=O)O)NC(=O)[C@H](CO)NC(=O)[C@@H](NC(=O)[C@H](Cc1ccccc1)NC(=O)[C@@H](NC(=O)CNC(=O)[C@H](CCC(N)=O)NC(=O)[C@@H](CO)NC(=O)CCc1c[nH]cn1)[C@@H](C)O)[C@@H](C)O)C(=O)N[C@@H](CO)C(=O)N[C@@H](CCCCN)C(=O)N[C@@H](Cc1ccc(O)cc1)C(=O)N[C@@H](CC(C)C)C(=O)N[C@@H](CC(=O)O)C(=O)N[C@@H](CCC(=O)O)C(=O)N[C@@H](CCCNC(=N)N)C(=O)N[C@@H](C)C(=O)N[C@@H](C)C(=O)N[C@@H](CCC(N)=O)C(=O)N[C@@H](CC(=O)O)C(=O)N[C@@H](Cc1ccccc1)C(=O)N[C@H](C(=O)N[C@@H](CCC(N)=O)C(=O)N[C@@H](Cc1c[nH]c2ccccc12)C(=O)N[C@@H](CC(C)C)C(=O)N[C@@H](CC(C)C)C(=O)N[C@@H](CC(=O)O)C(=O)N[C@H](C(N)=O)[C@@H](C)O)C(C)C)C(=O)O
# B7: peptide of SEQ ID NO: 61 (peptide)
# peptide: HXQGTFTSDKSKYLDERAAQDFVQWLMDT
# modifications: Aib at 2; Lys 10 acylated, printed K(γEyEC16); C-terminal amide
# B8: peptide of SEQ ID NO: 56 (peptide)
# peptide: H[dA]QGTFTSDK([γGlu-Palmitoyl])SKYLDERAAQDFVQWLLDT-NH2
# modifications: N-terminus assumed
# SMILES: CCCCCCCCCCCCCCCC(=O)N[C@@H](CCC(=O)NCCCC[C@H](NC(=O)[C@H](CC(=O)O)NC(=O)[C@H](CO)NC(=O)[C@@H](NC(=O)[C@H](Cc1ccccc1)NC(=O)[C@@H](NC(=O)CNC(=O)[C@H](CCC(N)=O)NC(=O)[C@@H](C)NC(=O)[C@@H](N)Cc1c[nH]cn1)[C@@H](C)O)[C@@H](C)O)C(=O)N[C@@H](CO)C(=O)N[C@@H](CCCCN)C(=O)N[C@@H](Cc1ccc(O)cc1)C(=O)N[C@@H](CC(C)C)C(=O)N[C@@H](CC(=O)O)C(=O)N[C@@H](CCC(=O)O)C(=O)N[C@@H](CCCNC(=N)N)C(=O)N[C@@H](C)C(=O)N[C@@H](C)C(=O)N[C@@H](CCC(N)=O)C(=O)N[C@@H](CC(=O)O)C(=O)N[C@@H](Cc1ccccc1)C(=O)N[C@H](C(=O)N[C@@H](CCC(N)=O)C(=O)N[C@@H](Cc1c[nH]c2ccccc12)C(=O)N[C@@H](CC(C)C)C(=O)N[C@@H](CC(C)C)C(=O)N[C@@H](CC(=O)O)C(=O)N[C@H](C(N)=O)[C@@H](C)O)C(C)C)C(=O)O
# B9: peptide of SEQ ID NO: 16 (peptide)
# peptide: H[Aib]QGTFTSDYSKYLDEKRA[Aib]EFVC(40K‑TE PEG)WLLDE-NH2
# B10: peptide of SEQ ID NO: 22 (peptide)
# peptide: H[Aib]QGTFTSDK([γGlu-γGlu-Palmitoyl])SKYLD[Aib]RAAQDFVQWLMDGRG-NH2
# modifications: N-terminus assumed
# SMILES: CCCCCCCCCCCCCCCC(=O)N[C@@H](CCC(=O)N[C@@H](CCC(=O)NCCCC[C@H](NC(=O)[C@H](CC(=O)O)NC(=O)[C@H](CO)NC(=O)[C@@H](NC(=O)[C@H](Cc1ccccc1)NC(=O)[C@@H](NC(=O)CNC(=O)[C@H](CCC(N)=O)NC(=O)C(C)(C)NC(=O)[C@@H](N)Cc1c[nH]cn1)[C@@H](C)O)[C@@H](C)O)C(=O)N[C@@H](CO)C(=O)N[C@@H](CCCCN)C(=O)N[C@@H](Cc1ccc(O)cc1)C(=O)N[C@@H](CC(C)C)C(=O)N[C@@H](CC(=O)O)C(=O)NC(C)(C)C(=O)N[C@@H](CCCNC(=N)N)C(=O)N[C@@H](C)C(=O)N[C@@H](C)C(=O)N[C@@H](CCC(N)=O)C(=O)N[C@@H](CC(=O)O)C(=O)N[C@@H](Cc1ccccc1)C(=O)N[C@H](C(=O)N[C@@H](CCC(N)=O)C(=O)N[C@@H](Cc1c[nH]c2ccccc12)C(=O)N[C@@H](CC(C)C)C(=O)N[C@@H](CCSC)C(=O)N[C@@H](CC(=O)O)C(=O)NCC(=O)N[C@@H](CCCNC(=N)N)C(=O)NCC(N)=O)C(C)C)C(=O)O)C(=O)O
# B11: peptide of SEQ ID NO: 51 (peptide)
# peptide: H[Aib]QGTFTSDYSKYLDEKRA[Aib]EFVC(40K‑TE PEG)WLL[Aib]GGPSSGAPPPS-NH2
# B12: peptide of SEQ ID NO: 49 (peptide)
# peptide: H[dS]QGTFTSDK(benzoylpropionyl)SKYLDERAAQDFVQWLLDGGPSSGAPPPS-NH2
# Biological target: T1, GIP receptor
# Experiment: cell-based or functional assay
row,Binder,EC50 (nM) at GIP receptor
1,B1,4.5 nM
2,B2,7.48 nM
3,B3,0.812 nM
4,B4,147 nM
5,B5,35.7 nM
6,B6,1.38 nM
7,B7,0.676 nM
8,B8,1.64 nM
9,B9,465 nM
10,B10,2.37 nM

# Biological target: glucagon receptor (UniProt P47871 26-477, limits assumed)
# Experiment: cell-based or functional assay
# Chain of glucagon receptor (P47871 26-477 limits assumed): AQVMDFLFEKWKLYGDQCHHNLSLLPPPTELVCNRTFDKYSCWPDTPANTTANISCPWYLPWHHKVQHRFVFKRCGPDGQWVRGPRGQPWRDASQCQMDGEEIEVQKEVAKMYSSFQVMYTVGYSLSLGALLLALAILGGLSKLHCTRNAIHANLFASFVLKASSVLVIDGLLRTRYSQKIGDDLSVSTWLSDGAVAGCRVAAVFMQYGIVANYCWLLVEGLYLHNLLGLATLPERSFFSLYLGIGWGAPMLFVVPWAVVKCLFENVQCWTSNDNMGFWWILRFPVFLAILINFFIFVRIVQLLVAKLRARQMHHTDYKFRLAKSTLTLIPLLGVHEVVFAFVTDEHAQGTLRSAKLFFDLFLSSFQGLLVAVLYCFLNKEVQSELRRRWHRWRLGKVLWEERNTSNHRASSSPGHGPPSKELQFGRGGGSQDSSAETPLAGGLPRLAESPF
row,Binder,EC50 (nM) at glucagon receptor
1,B1,0.005 nM
2,B2,0.051 nM
3,B3,0.004 nM
4,B4,4.6 nM
5,B5,0.09 nM
6,B6,0.006 nM
7,B7,0.009 nM
8,B11,2.04 nM
9,B8,0.006 nM
10,B9,0.563 nM
11,B12,0.063 nM
12,B10,0.005 nM

# Biological target: GLP-1 receptor (UniProt P43220 24-463, limits assumed)
# Experiment: cell-based or functional assay
row,Binder,EC50 (nM) at GLP-1 receptor
1,B1,0.009 nM
2,B2,0.01 nM
3,B3,0.002 nM
4,B4,0.033 nM
5,B5,0.025 nM
6,B6,0.004 nM
7,B7,0.004 nM
8,B11,0.062 nM
9,B8,0.02 nM
10,B9,0.487 nM
11,B12,0.01 nM
12,B10,0.002 nM
